Assay results published in patent publication US6423315 (UNIVERSITY OF TENNESSEE RESEARCH, dated 2002).
Ends that are not written are not given here.

Molecular target: I-A^q molecule of MHC (mouse (DBA/1))
Assay: cell-based or functional assay

- IL-2 U/ml, T-cell hybridoma 2qCII92.33, molar ratio competitor:CII 245-270 1.6:1: 160 U/ml
- IL-2 U/ml, T-cell hybridoma 2qCII92.33, molar ratio competitor:CII 245-270 3.2:1: 160 U/ml
- IL-2 U/ml, T-cell hybridoma 2qCII92.33, molar ratio competitor:CII 245-270 6.5:1: 160 U/ml
- IL-2 U/ml, T-cell hybridoma 2qCII92.33, molar ratio competitor:CII 245-270 13:1: 160 U/ml
- IL-2 U/ml, T-cell hybridoma qCII85.33, molar ratio competitor:CII 245-270 1.6:1: 640 U/ml
- IL-2 U/ml, T-cell hybridoma qCII85.33, molar ratio competitor:CII 245-270 3.2:1: 640 U/ml
- IL-2 U/ml, T-cell hybridoma qCII85.33, molar ratio competitor:CII 245-270 6.5:1: 640 U/ml
- IL-2 U/ml, T-cell hybridoma qCII85.33, molar ratio competitor:CII 245-270 13:1: 640 U/ml
- IL-2 U/ml, T-cell hybridoma qCII98.10, molar ratio competitor:CII 245-270 1.6:1: 160 U/ml
- IL-2 U/ml, T-cell hybridoma qCII98.10, molar ratio competitor:CII 245-270 3.2:1: 160 U/ml
- IL-2 U/ml, T-cell hybridoma qCII98.10, molar ratio competitor:CII 245-270 6.5:1: 160 U/ml
- IL-2 U/ml, T-cell hybridoma qCII98.10, molar ratio competitor:CII 245-270 13:1: 160 U/ml
Binder: PTGPLGPKGQTGELGIAGFKGDTGAK (not fully specified) [CII 245-270 [s266, 267, 269]]
